The source of these data is PMC8872419.

The assay deals with mutated SMN1 protein with T274YfsX32, myc-tagged (exogenous) (human) (UniProt Q16637). In words: co-IP; lysate (1 mg) of HeLa cells 24 h after transfection, RIPA buffer without SDS; anti-myc-tag antibody on Dynabeads Protein A; washed three times; blots with anti-myc-tag and anti-SMN antibodies; band ratio End-SMN/Exo-SMN, in triplicate.

Consider “endogenous FL-SMN1 and/or FL-SMN2 protein (endogenous SMN protein) (from UniProt Q16637 1-294) (natural protein)”, for which the ratio of End-SMN to Exo-SMN turned out to be 0.02 and the ratio of End-SMN/Exo-SMN, percent of wild type stood at 4%.
